Values belong to the binder of their own block, whether it stands above or below them.
How the values were obtained:
[1] = target: mouse LDLR (in vivo, wild-type against LDLR -/- mice) (mouse, UniProt P35951 22-862); experiment: cell-based or functional assay
[2] = target: T1, Fc alone (human Fc fragment of an IgG1 antibody) (human, UniProt P01857-1 104-330 = IgG part, limits assumed); experiment: pulse-chase immunocytochemistry on CHO-hLDLR-GFP cells, anti-human Fc antibody Alexa 594
T1 construct: domain: Fc fragment; Negative control

Sequence of mouse LDLR (in vivo, wild-type against LDLR -/- mice) (P35951 22-862): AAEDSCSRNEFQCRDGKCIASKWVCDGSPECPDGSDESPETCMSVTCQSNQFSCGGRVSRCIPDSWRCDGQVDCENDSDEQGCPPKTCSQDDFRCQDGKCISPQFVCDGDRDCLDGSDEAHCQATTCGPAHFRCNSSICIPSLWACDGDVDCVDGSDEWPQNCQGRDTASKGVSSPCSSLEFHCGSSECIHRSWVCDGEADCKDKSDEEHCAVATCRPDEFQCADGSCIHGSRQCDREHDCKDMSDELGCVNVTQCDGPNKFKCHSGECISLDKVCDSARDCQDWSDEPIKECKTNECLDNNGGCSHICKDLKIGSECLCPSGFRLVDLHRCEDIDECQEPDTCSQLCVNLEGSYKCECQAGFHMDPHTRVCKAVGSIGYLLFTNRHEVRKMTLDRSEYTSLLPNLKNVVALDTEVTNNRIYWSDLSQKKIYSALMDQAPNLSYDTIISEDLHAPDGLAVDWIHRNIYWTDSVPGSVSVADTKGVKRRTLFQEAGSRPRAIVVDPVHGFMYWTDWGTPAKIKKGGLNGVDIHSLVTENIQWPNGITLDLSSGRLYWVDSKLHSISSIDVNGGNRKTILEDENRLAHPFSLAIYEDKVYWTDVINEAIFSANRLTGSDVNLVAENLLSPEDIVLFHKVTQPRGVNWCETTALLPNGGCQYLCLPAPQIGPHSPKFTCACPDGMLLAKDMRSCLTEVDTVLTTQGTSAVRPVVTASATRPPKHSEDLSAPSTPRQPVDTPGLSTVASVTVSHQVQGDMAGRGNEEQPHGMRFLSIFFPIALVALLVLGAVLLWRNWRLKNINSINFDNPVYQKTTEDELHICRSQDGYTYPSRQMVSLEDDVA

decrease in peptide concentration in the adrenal glands of LDLR-/- (KO) mice compared to wild-type mice, tritium-labelled peptide, 10 min after i.v. injection [1]: ~3.4 fold | decrease in peptide concentration in the intestine of LDLR-/- (KO) mice compared to wild-type mice, tritium-labelled peptide, 10 min after i.v. injection [1]: ~3.6 fold | decrease in peptide concentration in the liver of LDLR-/- (KO) mice compared to wild-type mice, tritium-labelled peptide, 10 min after i.v. injection [1]: ~4 fold
B1: peptide SEQ ID NO: 1, (D)-Cys-Met-Thz-Arg-Leu-Arg-Gly-Pen (peptide)
peptide: XMXRLRGX
modifications: (D)-Cys at 1, Thz (thiazolidine-4-carboxylic acid) at 3, Pen (penicillamine) at 8; cyclised by a disulfide bridge

binding result [2]: no binding (tested: 5 nM)
B2: hLDLR fused to GFP, on CHO-hLDLR-GFP cells (receptor)
chain: not shown
notes: whole, on cells; also called CHO-LDLR-GFP; not shown: GFP fused in the C-term position

From patent EP2908837B1 (Vect-Horus, dated 2014)
